Experimental data published in patent US20100098682A1 (published 2010).
Values belong to the binder of their own block, whether it stands above or below them.

Legend:
[1] = target: T1, Amyloid precursor protein (APP), full length (human, UniProt P05067-4 18-695); test: anti-myc immunoprecipitation from γ30 cell lysates, western blot
T1 construct: whole, on cells; Used for transfected APP (HeLa), stably expressed APP (HEK293APP, γ30 cells) and endogenous APP of human brain homogenates; also called full length APP; mature, glycosylated APP
Procedure: (§1) FIG. 4 is photographs of western blots establishing that the first 102 amino acids of BRI2 are necessary to inhibit the efficient cleavage of C99 and that the same region is necessary for the binding of BRI2 to C99 of APP. […] HC indicates the heavy chain of myc antibody used in the immunoprecipitation.
(§2) Immunoprecipitation and western blot. Unless otherwise noted, all immunoprecipitation procedures were performed at 4° C. The transfected cells were lysed in Buffer A [20 mM Hepes/NaOH pH 7.4, 1 mM EDTA, 1 mM DTT, 150 mM NaCl, 0.5% (w/v) TritonX-100] containing 10% (v/v) Glycerol for 30 min, and the lysates were cleared at 20,000 g for 10 min. For FLAG immunoprecipitation, the cleared lysates were mixed with 20 μl of FLAG-M2 beads (Sigma) for 2 hours, and washed three times with Buffer A. The precipitates were boiled in 60 μl of 2×SDS sample buffer and subjected to western blot. For other immunoprecipitation, the cleared lysates were incubated with antibodies for one hour, and mixed with 20 μl of protein A/G beads (Pierce), washed and processed as above. Human brains (a generous gift of Dr. Peter Davies) were homogenized in Buffer A containing 10% (v/v) Glycerol using a Dounce homogenizer. The proteins were extracted overnight with the protein concentration at 5 mg/ml. Extracted proteins were cleared at 20,000 g for one hour. The supernatants were incubated with the indicated antibodies and protein A/G beads blocked with PBS containing 1% (w/v) BSA. Precipitants were washed and processed as described above.

[2] = target: T2, C99, COOH-terminal fragment of 99 amino acids of APP (human, UniProt P05067 672-770); test: as above
T2 construct: domain: COOH-terminal fragment of 99 amino acids (C99); Produced in cells from APP by processing; also endogenous C99 of human brain
Procedure: as §1, §2

- binding result [1]: no binding
- binding result [2]: no binding
B1: myc-tagged BRI2 C-terminal deletion, first 93 amino acids (other)
chain: MVKVTFNSALAQKEAKKDEPKSGEEALIIPPDAVAVDCKDPDDVVPVGQRRAWCWCMCFGLAFMLAGVILGGAYLYKYFALQPDDVYYCGIKY
notes: Expressed in γ30 cells; also called BRI2 1-93; not shown: myc tag

- binding result [1]: no binding
- binding result [2]: no binding
B2: myc-tagged BRI2 C-terminal deletion, first 80 amino acids (other)
chain: MVKVTFNSALAQKEAKKDEPKSGEEALIIPPDAVAVDCKDPDDVVPVGQRRAWCWCMCFGLAFMLAGVILGGAYLYKYFA
notes: Expressed in γ30 cells; also called BRI2 1-80; not shown: myc tag
